{"source": "paper PMC3381513", "key": {"CUGBP1 RRM1 (ITC)": {"biological_target": "CUGBP1 RRM1 (ITC) (human, UniProt Q92879 16-99)", "sequence (Q92879 16-99)": "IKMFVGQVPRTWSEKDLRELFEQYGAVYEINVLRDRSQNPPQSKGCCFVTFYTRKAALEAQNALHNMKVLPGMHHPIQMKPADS", "assay": "ITC"}, "CUGBP1 RRM2 (ITC)": {"biological_target": "CUGBP1 RRM2 (ITC) (human, UniProt Q92879 109-187)", "sequence (Q92879 109-187)": "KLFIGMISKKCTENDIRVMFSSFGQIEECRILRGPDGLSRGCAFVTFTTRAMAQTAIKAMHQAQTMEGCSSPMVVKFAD", "assay": "ITC"}, "CUGBP1 RRM1/2 [1]": {"biological_target": "T1, CUGBP1 RRM1/2 (human, UniProt Q92879 14-187)", "T1 sequence (Q92879 14-187)": "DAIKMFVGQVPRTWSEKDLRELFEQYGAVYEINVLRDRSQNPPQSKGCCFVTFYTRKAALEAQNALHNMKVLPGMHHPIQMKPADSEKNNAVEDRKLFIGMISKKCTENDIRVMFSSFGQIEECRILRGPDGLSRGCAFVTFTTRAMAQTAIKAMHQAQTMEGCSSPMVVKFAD", "assay": "filter binding"}, "CUGBP1 RRM1/2 [2]": {"biological_target": "T1, CUGBP1 RRM1/2", "assay": "crystal structure"}, "CUGBP1 RRM1/2 [3]": {"biological_target": "T1, CUGBP1 RRM1/2", "assay": "filter binding", "remark": "listed apart in the source"}, "CUGBP1 RRM1/2 [4]": {"biological_target": "T1, CUGBP1 RRM1/2", "assay": "filter binding", "remark": "listed apart in the source"}, "CUGBP1 RRM1/2 [5]": {"biological_target": "T1, CUGBP1 RRM1/2", "assay": "EMSA"}}, "note": "Read-outs that look alike come from different tables or passages of the source."}
{"binder": "UUGUU (ssRNA)", "note": "[UUGUU 5-nt]", "values": [{"measurement": "Kd", "setting": "CUGBP1 RRM1 (ITC)", "value": 29, "unit": "µM"}, {"measurement": "Kd", "setting": "CUGBP1 RRM2 (ITC)", "value": 45, "unit": "µM"}]}
{"binder": "GUUUUUUUUUUU (ssRNA)", "note": "[U4U10]", "values": [{"measurement": "binding result", "setting": "CUGBP1 RRM1/2 [1]", "value": "no binding"}]}
{"binder": "GUUAUUUUUAUU (ssRNA)", "note": "[A4A10]", "values": [{"measurement": "binding result", "setting": "CUGBP1 RRM1/2 [1]", "value": "no binding"}]}
{"binder": "GUUGUUUUUGUU (ssRNA, U8 = 5-bromouridine)", "note": "[BrU8 sequence 2]", "values": [{"measurement": "binding result", "setting": "CUGBP1 RRM1/2 [2]", "value": "binds"}]}
{"binder": "GUUGUUUUUAUU (ssRNA)", "note": "[G4A10]", "values": [{"measurement": "binding signal", "setting": "CUGBP1 RRM1/2 [3]", "value": "2.5 fold reduction in binding vs N2"}]}
{"binder": "GUUGUUUUUGUU (ssRNA, U2 = 5-bromouridine)", "note": "[BrU2 sequence 2]", "values": [{"measurement": "binding result", "setting": "CUGBP1 RRM1/2 [2]", "value": "binds"}]}
{"binder": "GUUGCUUUUGCU (ssRNA)", "note": "[C5C11]", "values": [{"measurement": "binding signal", "setting": "CUGBP1 RRM1/2 [4]", "value": "~5 fold loss in affinity vs N2"}]}
{"binder": "GUUAUUUUUGUU (ssRNA)", "note": "[A4G10]", "values": [{"measurement": "binding signal", "setting": "CUGBP1 RRM1/2 [3]", "value": "4.4 fold reduction in binding vs N2"}]}
{"binder": "GUUCUUUUUCUU (ssRNA)", "note": "[C4C10]", "values": [{"measurement": "binding result", "setting": "CUGBP1 RRM1/2 [1]", "value": "no binding"}]}
{"binder": "UGUGUGUUGUGUG (ssRNA)", "note": "[sequence 3, 13-mer]", "values": [{"measurement": "binding result", "setting": "CUGBP1 RRM1/2 [5]", "value": "binds"}]}
